Experimental findings from US20190040102A1 (CDRD VENTURES, published 2019) are described below.

Starred links: 1 amine or outer side, 2 acyl side, 3 side chain; linkers in the order of their positions; H or OH if unused. Positions of bridges follow the written chain, without caps; N, C: chain ends. Non-standard residues stand in square brackets, D forms with d. *: point of attachment. Tyr(Me) = 4-OMe-Phe, COc1ccc(C[C@H](N[*:1])C(=O)[*:2])cc1; dPhe(4-CONH2) = NC(=O)c1ccc(C[C@@H](N)C(=O)O)cc1; dTyr(Me) = COc1ccc(C[C@@H](N[*:1])C(=O)[*:2])cc1; Phe(4-Cl) = N[C@@H](Cc1ccc(Cl)cc1)C(=O)O; dPhe(4-Cl) = N[C@H](Cc1ccc(Cl)cc1)C(=O)O; Bz = O=C(c1ccccc1)*; βAla = NCCC(=O)O

Experiment [1] deals with somatostatin receptor type 2 (SSTR2) (UniProt P30874 1-369). The experiment can be described thus: cell-based or functional assay.
Chain of somatostatin receptor type 2 (SSTR2) (P30874 whole entry): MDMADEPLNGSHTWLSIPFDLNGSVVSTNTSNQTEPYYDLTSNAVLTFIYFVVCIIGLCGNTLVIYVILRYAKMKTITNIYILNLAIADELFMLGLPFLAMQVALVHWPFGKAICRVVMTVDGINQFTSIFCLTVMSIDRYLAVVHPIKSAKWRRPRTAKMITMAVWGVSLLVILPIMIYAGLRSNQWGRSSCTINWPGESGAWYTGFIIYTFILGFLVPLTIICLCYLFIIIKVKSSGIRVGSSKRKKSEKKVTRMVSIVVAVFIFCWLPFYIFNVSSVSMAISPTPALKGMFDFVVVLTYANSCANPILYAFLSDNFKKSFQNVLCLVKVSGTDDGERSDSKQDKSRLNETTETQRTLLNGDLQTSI
In experiment [2] the target is somatostatin receptor SSTR3 (UniProt P32745 1-418). The experiment can be described thus: cell-based or functional assay.
Chain of somatostatin receptor SSTR3 (P32745 whole entry): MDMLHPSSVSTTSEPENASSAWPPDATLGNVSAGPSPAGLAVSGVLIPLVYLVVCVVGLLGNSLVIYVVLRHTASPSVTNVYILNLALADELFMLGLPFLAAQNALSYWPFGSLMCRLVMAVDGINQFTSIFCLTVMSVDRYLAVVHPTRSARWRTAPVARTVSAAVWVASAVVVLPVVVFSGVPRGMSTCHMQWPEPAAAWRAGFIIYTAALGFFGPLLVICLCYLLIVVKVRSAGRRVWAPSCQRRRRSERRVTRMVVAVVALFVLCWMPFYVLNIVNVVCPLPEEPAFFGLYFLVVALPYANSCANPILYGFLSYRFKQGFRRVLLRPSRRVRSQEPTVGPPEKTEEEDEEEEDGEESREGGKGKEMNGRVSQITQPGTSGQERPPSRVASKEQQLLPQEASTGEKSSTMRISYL

For H-[Phe(4-Cl)][dC]Y[dAph(Pro)]KTC[dY]-NH2 (disulfide 2-7) [Compound 10: H-Cpa-cyclo[DCys-Tyr-D-4-(Pro)Aph-Lys-Thr-Cys]-DTyr-NH2], the “IC50 (PathHunter β-Arrestin, antagonist mode)” value (“IC50” for short) in experiment [1] and in experiment [2] was more than 1 µM in each case.

B1: Compound 48: H-Cpa-cyclo[D-Cys-Cpa-D-Phe(4-carbamoyl)-Lys(Nε-Me)-Thr-Cys]-D-Tyr-NH2 (peptide)
peptide: H-[Phe(4-Cl)][dC][Phe(4-Cl)][dPhe(4-CONH2)]K(Me)TC[dY]-NH2
modifications: disulfide 2-7
SMILES: CNCCCC[C@@H]1NC(=O)[C@@H](Cc2ccc(C(N)=O)cc2)NC(=O)[C@H](Cc2ccc(Cl)cc2)NC(=O)[C@H](NC(=O)[C@@H](N)Cc2ccc(Cl)cc2)CSSC[C@@H](C(=O)N[C@H](Cc2ccc(O)cc2)C(N)=O)NC(=O)[C@H]([C@@H](C)O)NC1=O
Take B1: the “IC50” value in experiment [1] amounted to 0.00131 µM.

B2: Compound 9: H-Cpa-cyclo[DCys-Tyr-D-4-(Gly-Ac)Aph-Lys-Thr-Cys]-DTyr-NH2 (peptide)
peptide: XXYXKTCX
HELM: PEPTIDE1{[N[C@@H](Cc1ccc(Cl)cc1)C(=O)[*:2]].[dC].Y.[O=C([C@@H](Cc1ccc(N[*:3])cc1)N[*:1])[*:2]].K.T.C.[dY].[am]}|PEPTIDE2{[ac].G}$PEPTIDE1,PEPTIDE2,4:R3-2:R2|PEPTIDE1,PEPTIDE1,2:R3-7:R3$$$V2.0
SMILES: CC(=O)NCC(=O)Nc1ccc(C[C@H]2NC(=O)[C@H](Cc3ccc(O)cc3)NC(=O)[C@H](NC(=O)[C@@H](N)Cc3ccc(Cl)cc3)CSSC[C@@H](C(=O)N[C@H](Cc3ccc(O)cc3)C(N)=O)NC(=O)[C@H]([C@@H](C)O)NC(=O)[C@H](CCCCN)NC2=O)cc1
Regarding B2, the “IC50” value in experiment [1] was 0.104 µM; in experiment [2], more than 1 µM.

B3: Compound 44: H-Cpa-cyclo[DCys-Tyr-D-(4-carbamoyl)Phe-Lys-Thr-Cys]-4-OMe-D-Phe-NH2 (peptide)
peptide: H-[Phe(4-Cl)][dC]Y[dPhe(4-CONH2)]KTC[dTyr(Me)]-NH2
modifications: disulfide 2-7
SMILES: COc1ccc(C[C@@H](NC(=O)[C@@H]2CSSC[C@@H](NC(=O)[C@@H](N)Cc3ccc(Cl)cc3)C(=O)N[C@@H](Cc3ccc(O)cc3)C(=O)N[C@H](Cc3ccc(C(N)=O)cc3)C(=O)N[C@@H](CCCCN)C(=O)N[C@@H]([C@@H](C)O)C(=O)N2)C(N)=O)cc1
As to B3, the “IC50” value in experiment [1] turned out to be 0.0107 µM.

As for H-[Phe(4-Cl)][dC]Y[dAph(Gln)]KTC[dY]-NH2 (disulfide 2-7) [Compound 21: H-Cpa-cyclo[DCys-Tyr-D-4-(Gln)Aph-Lys-Thr-Cys]-DTyr-NH2], the “IC50” value in experiment [1] and in experiment [2] was more than 1 µM in each case.

H-[Phe(4-Cl)][dC]Y[dAph(Ser)]KTC[dY]-NH2 (disulfide 2-7) [Compound 16: H-Cpa-cyclo[DCys-Tyr-D-4-(Ser)Aph-Lys-Thr-Cys]-DTyr-NH2]: the results for the “IC50” value in experiment [1] and in experiment [2] were 0.234 µM and more than 1 µM, respectively.

B4: Compound 47: H-Cpa-cyclo[D-Cys-Cpa-D-Phe(4-carbamoyl)-Lys(Nε-Me)-Thr-Cys]-D-Cpa-NH2 (peptide)
peptide: H-[Phe(4-Cl)][dC][Phe(4-Cl)][dPhe(4-CONH2)]K(Me)TC[dPhe(4-Cl)]-NH2
modifications: disulfide 2-7
SMILES: CNCCCC[C@@H]1NC(=O)[C@@H](Cc2ccc(C(N)=O)cc2)NC(=O)[C@H](Cc2ccc(Cl)cc2)NC(=O)[C@H](NC(=O)[C@@H](N)Cc2ccc(Cl)cc2)CSSC[C@@H](C(=O)N[C@H](Cc2ccc(Cl)cc2)C(N)=O)NC(=O)[C@H]([C@@H](C)O)NC1=O
As to B4, the “IC50” value in experiment [1] stood at 0.00151 µM.

H-[Phe(4-Cl)][dC]Y[dAph(Asn)]KTC[dY]-NH2 (disulfide 2-7) [Compound 19: H-Cpa-cyclo[DCys-Tyr-D-4-(Asn)Aph-Lys-Thr-Cys]-DTyr-NH2]: the “IC50” value in experiment [1] and in experiment [2] was more than 1 µM each time.

Turning to {2‑(phenylsulfonyl)acetyl}-[Phe(4-Cl)][dC]Y[dPhe(4-CONH2)]K(Me)TC[dY]-NH2 (disulfide 2-7) [Compound 51: PhSO2CH2(CO)-Cpa-cyclo[D-Cys-Tyr-D-Phe(4-carbamoyl)-Lys(Nε-Me)-Thr-Cys]-D-Tyr-NH2], the “IC50” value in experiment [1] worked out at 0.00145 µM.

B5: Compound 8: H-Cpa-cyclo[DCys-Tyr-D-4-(Gly)Aph-Lys-Thr-Cys]-DTyr-NH2 (peptide)
peptide: XXYXKTCX
HELM: PEPTIDE1{[N[C@@H](Cc1ccc(Cl)cc1)C(=O)[*:2]].[dC].Y.[O=C([C@@H](Cc1ccc(N[*:3])cc1)N[*:1])[*:2]].K.T.C.[dY].[am]}|PEPTIDE2{G}$PEPTIDE1,PEPTIDE2,4:R3-1:R2|PEPTIDE1,PEPTIDE1,2:R3-7:R3$$$V2.0
SMILES: C[C@@H](O)[C@@H]1NC(=O)[C@H](CCCCN)NC(=O)[C@@H](Cc2ccc(NC(=O)CN)cc2)NC(=O)[C@H](Cc2ccc(O)cc2)NC(=O)[C@H](NC(=O)[C@@H](N)Cc2ccc(Cl)cc2)CSSC[C@@H](C(=O)N[C@H](Cc2ccc(O)cc2)C(N)=O)NC1=O
For B5, the “IC50” value in experiment [1] was 0.084 µM; in experiment [2], more than 1 µM.

Consider picolinoyl-[Phe(4-Cl)][dC]Y[dPhe(4-CONH2)]K(Me)TC[dY]-NH2 (disulfide 2-7) [Compound 53: 2-Pyridyl(CO)-Cpa-cyclo[D-Cys-Tyr-D-Phe(4-carbamoyl)-Lys(Nε-Me)-Thr-Cys]-D-Tyr-NH2], for which the “IC50” value in experiment [1] amounted to 0.00428 µM.

B6: Compound 50: Ph(CO)NHCH2(CO)-Cpa-cyclo[D-Cys-Tyr-D-Phe(4-carbamoyl)-Lys(Nε-Me)-Thr-Cys]-D-Tyr-NH2 (peptide)
peptide: Bz-G[Phe(4-Cl)][dC]Y[dPhe(4-CONH2)]K(Me)TC[dY]-NH2
modifications: disulfide 3-8
SMILES: CNCCCC[C@@H]1NC(=O)[C@@H](Cc2ccc(C(N)=O)cc2)NC(=O)[C@H](Cc2ccc(O)cc2)NC(=O)[C@H](NC(=O)[C@H](Cc2ccc(Cl)cc2)NC(=O)CNC(=O)c2ccccc2)CSSC[C@@H](C(=O)N[C@H](Cc2ccc(O)cc2)C(N)=O)NC(=O)[C@H]([C@@H](C)O)NC1=O
For the molecule B6, the “IC50” value in experiment [1] stood at 0.00111 µM.

As to H-[Phe(4-Cl)][dC]Y[dPhe(4-acetamidomethyl)]KTC[dY]-NH2 (disulfide 2-7) [Compound 6: H-Cpa-cyclo[DCys-Tyr-D-(4-acetamidomethyl)Phe-Lys-Thr-Cys]-DTyr-NH2], the “IC50” value in experiment [1] is 0.166 µM; in experiment [2], more than 1 µM.

As to H-[Phe(4-Cl)][dC]Y[dPhe(4-aminomethyl)]KTC[dY]-NH2 (disulfide 2-7) [Compound 5: H-Cpa-cyclo[DCys-Tyr-D-(4-aminomethyl)Phe-Lys-Thr-Cys]-DTyr-NH2], the “IC50” value is 0.213 µM in experiment [1] and more than 1 µM in experiment [2].

With succinamoyl-[Phe(4-Cl)][dC]Y[dPhe(4-CONH2)]K(Me)TC[dY]-NH2 (disulfide 2-7) [Compound 54: H2N(CO)(CH2)2(CO)-Cpa-cyclo[D-Cys-Tyr-D-Phe(4-carbamoyl)-Lys(Nε-Me)-Thr-Cys]-D-Tyr-NH2], the “IC50” value in experiment [1] came to 0.00233 µM.

Turning to H-[Phe(4-Cl)][dC]Y[dAph(2-(4-morpholinyl)ethyl)]KTC[dY]-NH2 (disulfide 2-7) [Compound 11: H-Cpa-cyclo[DCys-Tyr-D-4-(2-(4-morpholinyl)ethyl)Aph-Lys-Thr-Cys]-DTyr-NH2], the “IC50” value is 0.243 µM in experiment [1] and more than 1 µM in experiment [2].

With {3,3‑dimethylbutanoyl}-[Phe(4-Cl)][dC]Y[dPhe(4-CONH2)]K(Me)TC[dY]-NH2 (disulfide 2-7) [Compound 52: t-BuCH2(CO)-Cpa-cyclo[D-Cys-Tyr-D-Phe(4-carbamoyl)-Lys(Nε-Me)-Thr-Cys]-D-Tyr-NH2], the “IC50” value in experiment [1] was determined as 0.00173 µM.

B7: Compound 46: H-Cpa-cyclo[D-Cys-Tyr-D-Phe(4-carbamoyl)-Lys(Nε-Me)-Thr-Cys]-D-Cpa-NH2 (peptide)
peptide: H-[Phe(4-Cl)][dC]Y[dPhe(4-CONH2)]K(Me)TC[dPhe(4-Cl)]-NH2
modifications: disulfide 2-7
SMILES: CNCCCC[C@@H]1NC(=O)[C@@H](Cc2ccc(C(N)=O)cc2)NC(=O)[C@H](Cc2ccc(O)cc2)NC(=O)[C@H](NC(=O)[C@@H](N)Cc2ccc(Cl)cc2)CSSC[C@@H](C(=O)N[C@H](Cc2ccc(Cl)cc2)C(N)=O)NC(=O)[C@H]([C@@H](C)O)NC1=O
For the molecule B7, the “IC50” value in experiment [1] was found to be 0.000398 µM.

In the case of H-[Phe(4-Cl)][dC]Y[dAph(Asp)]KTC[dY]-NH2 (disulfide 2-7) [Compound 18: H-Cpa-cyclo[DCys-Tyr-D-4-(Asp)Aph-Lys-Thr-Cys]-DTyr-NH2], the “IC50” value in experiment [1] and in experiment [2] was more than 1 µM each time.

B8: Compound 45: H-Cpa-cyclo[DCys-4-OMe-Phe-D-(4-carbamoyl)Phe-Lys-Thr-Cys]-4-OMe-D-Phe-NH2 (peptide)
peptide: H-[Phe(4-Cl)][dC][Tyr(Me)][dPhe(4-CONH2)]KTC[dTyr(Me)]-NH2
modifications: disulfide 2-7
SMILES: COc1ccc(C[C@@H]2NC(=O)[C@H](NC(=O)[C@@H](N)Cc3ccc(Cl)cc3)CSSC[C@@H](C(=O)N[C@H](Cc3ccc(OC)cc3)C(N)=O)NC(=O)[C@H]([C@@H](C)O)NC(=O)[C@H](CCCCN)NC(=O)[C@@H](Cc3ccc(C(N)=O)cc3)NC2=O)cc1
Regarding B8, in experiment [1], the “IC50” value was determined as 0.0146 µM.

B9: Compound 49: H-βAla-Cpa-cyclo[DCys-Tyr-DPhe(4-CONH2)-Lys(Me)-Thr-Cys]-DTyr-NH2 (peptide)
peptide: H-[βAla][Phe(4-Cl)][dC]Y[dPhe(4-CONH2)]K(Me)TC[dY]-NH2
modifications: disulfide 3-8
SMILES: CNCCCC[C@@H]1NC(=O)[C@@H](Cc2ccc(C(N)=O)cc2)NC(=O)[C@H](Cc2ccc(O)cc2)NC(=O)[C@H](NC(=O)[C@H](Cc2ccc(Cl)cc2)NC(=O)CCN)CSSC[C@@H](C(=O)N[C@H](Cc2ccc(O)cc2)C(N)=O)NC(=O)[C@H]([C@@H](C)O)NC1=O
As for B9, the “IC50” value in experiment [1] was found to be 0.00286 µM.

Regarding H-[Phe(4-Cl)][dC]Y[dAph(Glu)]KTC[dY]-NH2 (disulfide 2-7) [Compound 20: H-Cpa-cyclo[DCys-Tyr-D-4-(Glu)Aph-Lys-Thr-Cys]-DTyr-NH2], the entries for the “IC50” value in experiment [1] and in experiment [2] were 0.924 µM and more than 1 µM, respectively.

Turning to H-[Phe(4-Cl)][dC]Y[dAph(Lys)]KTC[dY]-NH2 (disulfide 2-7) [Compound 17: H-Cpa-cyclo[DCys-Tyr-D-4-(Lys)Aph-Lys-Thr-Cys]-DTyr-NH2], the “IC50” value in experiment [1] and in experiment [2] was more than 1 µM each time.

B10: Compound 43: H-Cpa-cyclo[DCys-4-Cl-Phe-D-(4-carbamoyl)Phe-Lys-Thr-Cys]-4-Cl-D-Phe-NH2 (peptide)
peptide: H-[Phe(4-Cl)][dC][Phe(4-Cl)][dPhe(4-CONH2)]KTC[dPhe(4-Cl)]-NH2
modifications: disulfide 2-7
SMILES: C[C@@H](O)[C@@H]1NC(=O)[C@H](CCCCN)NC(=O)[C@@H](Cc2ccc(C(N)=O)cc2)NC(=O)[C@H](Cc2ccc(Cl)cc2)NC(=O)[C@H](NC(=O)[C@@H](N)Cc2ccc(Cl)cc2)CSSC[C@@H](C(=O)N[C@H](Cc2ccc(Cl)cc2)C(N)=O)NC1=O
With B10, the “IC50” value in experiment [1] was 0.0256 µM.

Take H-[Phe(4-Cl)][dC]Y[dTyr(O-2-(4-morpholinyl)ethyl)]KTC[dY]-NH2 (disulfide 2-7) [Compound 13: H-Cpa-cyclo[DCys-Tyr-D-(2-(4-morpholinyl)ethyl)Tyr-Lys-Thr-Cys]-DTyr-NH2]: the “IC50” value in experiment [1] is 0.334 µM; in experiment [2] it was more than 1 µM.
